Measured values taken from publication PMC5814804 (Nucleic Acids Research, 2018).

B1: Thermotoga maritima TsaD (natural protein, UniProt Q9WXZ2 1-327, looked up)
chain: MRVLGIETSCDETAVAVLDDGKNVVVNFTVSQIEVHQKFGGVVPEVAARHHLKNLPILLKKAFEKVPPETVDVVAATYGPGLIGALLVGLSAAKGLAISLEKPFVGVNHVEAHVQAVFLANPDLKPPLVVLMVSGGHTQLMKVDEDYSMEVLGETLDDSAGEAFDKVARLLGLGYPGGPVIDRVAKKGDPEKYSFPRPMLDDDSYNFSFAGLKTSVLYFLQREKGYKVEDVAASFQKAVVDILVEKTFRLARNLGIRKIAFVGGVAANSMLREEVRKRAERWNYEVFFPPLELCTDNALMVAKAGYEKAKRGMFSPLSLNADPNLNV

Assays:
SEC = biological target: the molecule itself; assay: SEC
Thermotoga maritima TsaD = biological target: B1; assay: native gel or EMSA

| binding result (Thermotoga maritima TsaD) | Binder | stoichiometry N (SEC) |
| --- | --- | --- |
| – | B1 | 2 |
| binds | Thermotoga maritima TsaB (natural protein, UniProt Q9WZX7 1-206, looked up) MNVLALDTSQRIRIGLRKGEDLFEISYTGEKKHAEILPVVVKKLLDELDLKVKDLDVVGVGIGPGGLTGLRVGIATVVGLVSPYDIPVAPLNSFEMTAKSCPADGVVLVARRARKGYHYCAVYLKDKGLNPLKEPSVVSDEELEEITKEFSPKIVLKDDLLISPAVLVEESERLFREKKTIHYYEIEPLYLQKSIAELNWEKKKRG | 2 |
